Assay results reported in patent US20140271467A1 (Stanford University, published 2014).
Numbering of substitutions follows the chain as printed.

Legend:
[1] = molecular target: T1, biotinylated human CD20 extracellular loop peptide (amino acids 165-185) (human, biotin at the C-terminus (printed as SEQ ID NO: 1-biotin)); test: affinity titration with yeast surface display and flow cytometry, biotinylated CD20
T1 construct: Chemically synthesized; also called CD20 peptide; biotin-CD20 peptide
T1 peptide: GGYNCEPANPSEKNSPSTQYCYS

[2] = molecular target: T1, biotinylated human CD20 extracellular …; test: selection from the G4 library against the CD20 peptide
Source text: The human CD20 peptide extracellular loop was synthesized (amino acids: 165-185; […] (SEQ ID NO: 1)-biotin) and purified by RP-HPLC on a C-18 column and lyophilized as per the published procedure (29). This peptide was characterized by ESI-MS and immobilized on streptavidin magnetic beads for screening of FN3 binders. […] Briefly, yeast displaying 2.5×10⁸ FN3 mutants were sorted for binding to magnetic beads with immobilized CD20 peptide, followed by fluorescence-activated cell sorting for full-length proteins using the C-terminal c-myc epitope. Plasmid DNA from selected clones was recovered, mutated by error-prone PCR of either the entire FN3 gene or the paratope loops, and reintroduced into yeast by electroporation with homologous recombination. As binder enrichment progressed in later evolutionary cycles, fluorescence-activated cell sorting for binding to soluble CD20 peptide was also used. Six cycles of selection and mutation were performed. Plasmid DNA was recovered, transformed into bacteria, and individual clones were sequenced by standard DNA sequencing methods.

[3] = molecular target: T1, biotinylated human CD20 extracellular …; test: SPR (Biacore), biotin-CD20 peptide on a streptavidin chip, 1:1 fit, 25 C; SPR, CD20 peptide (amino acids 165-185)
Protocol: FN3CD20 protein (0.4, 2, 10, 50, 250, and 750 nM) was diluted in HBS and injected into the chip at a flow rate of 15 μL/min for 1 min at 25° C.
All measurements were performed at 25° C. on a BIAcore 100 instrument and streptavidin chip (GE healthcare Biosciences, PA). The streptavidin chip was first cleaned with three consecutive 1-min. injections of 40 μl, of a solution of 1 M NaCl in 50 mM NaOH before the immobilization procedure. Five minutes after the cleaning process when the sensorgram reached a stable baseline, biotynalated CD20 peptide, diluted in running buffer to 20 μg/mL, was injected for 7 min. using a flow rate of 5 μL/min. The same procedure was performed for immobilization of non-specific CD20 peptide, except that the non-specific CD20 peptide was diluted in running buffer to 200 μg/ml. To attain maximum immobilization level of biotin peptides on the surface of streptavidin, multiple injections were performed.
Target antigen of CD20 peptide was immobilized on a streptavidin chip. FN3CD20 was analyzed in 10 mM HEPES, pH 7.4, 150 mM NaCl, 0.005% Tween 20 at […] concentrations between 0 and 750 nM, and non-specific FN3 was used as control. The flow-rate was 15 μl/min; association and dissociation times were 1 and 2 min, respectively. […] The data were analyzed using BIAeval (BIAcore) software, with a global fitting to the 1:1 binding model. […]

[4] = molecular target: T2, human CD20 antigen on live Ramos cells (human, UniProt P11836 1-297); test: flow cytometry on live Ramos cells, 1:1 fit; flow cytometry, live Ramos cells (cellular CD20)
T2 construct: whole, on cells; Endogenous CD20 on Ramos cells (ATCC); also called cellular CD20; huCD20
T2 sequence (looked up): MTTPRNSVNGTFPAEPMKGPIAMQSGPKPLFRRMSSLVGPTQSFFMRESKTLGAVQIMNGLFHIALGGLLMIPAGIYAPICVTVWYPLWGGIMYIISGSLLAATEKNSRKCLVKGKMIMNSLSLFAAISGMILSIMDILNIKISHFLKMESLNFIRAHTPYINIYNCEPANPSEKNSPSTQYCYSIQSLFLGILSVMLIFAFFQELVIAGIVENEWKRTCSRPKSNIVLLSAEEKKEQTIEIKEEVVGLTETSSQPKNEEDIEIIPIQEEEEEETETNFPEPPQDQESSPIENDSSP
Protocol: FIG. 1C illustrates a graph showing the antigen-binding activity of FN3CD20. Ramos cells were incubated with the indicated concentration (0.5-80 nM) of FITC-FN3CD20 for 1 h at 4° C. Cells were washed and analyzed by flow cytometry. The data are expressed as the mean±standard deviation of three independent experiments. Data were normalized with respect to saturated fluorescence intensity (plateau) observed at the highest target concentrations.

[5] = molecular target: T2, human CD20 antigen on live Ramos cells; test: radiotracer binding to Ramos cells

B1: FN3CD20 clone displayed on the yeast surface (designed binder, not shown: large carriers)
chain: ASVSDVPRDLEVVAATPTSLLISWCRQRCADSYRITYGETGGNSPVQEFTVPGSWKTATISGLKPGVDYTITVYVVTHYYGWDRYSHPISINYRTGSHHHHHH
notes: also called one clone; this clone
B1 gave a Kd [1] of 14.3 nM.

B2: FN3CD20-01 (fibronectin type 3 domain clone selected against the CD20 peptide from the G4 library) (designed binder)
chain: ASVSDVPRDLEVVAATPTSLLISWHYTCAGSYRITYGETGGNSPVQEFTVPGSWKTATISGLKPGVDYTITVYAVTHYYGWDRYSHPISINYRTGSHHHHHH
notes: It was a library clone during selection
B2: binds [2].

B3: FN3CD20-02 (fibronectin type 3 domain clone selected against the CD20 peptide from the G4 library) (designed binder)
chain: B2 chain with G30D, G52W, S53Y, W54V, K55S, T56N, A74V
notes: as for B2
B3: binds [2].

B4: FN3CD20-03 (fibronectin type 3 domain clone selected against the CD20 peptide from the G4 library) (designed binder)
chain: ASVSDVPRDLGVVAATPTSLLISWHSSDVSYYRITYGETGGNSPVQEFTVPYWFTNTTISGLKPGVDYTITVYAATYRDCSSEPISINYRTGSHHHHHH
notes: as for B2
B4: binds [2].

B5: FN3CD20 (engineered fibronectin type 3 domain binding CD20, soluble, C-terminal His6 tag) (designed binder)
chain: B1 chain
notes: Made in E. coli with a His6 tag; also called FN3 scaffold
B5 gave a Kd [3] of 22 nM and a Kd [4] of 20 nM.

B6: 64Cu-Do-FN3CD20 (64Cu-DOTA-labelled FN3CD20) (designed binder)
chain: B1 chain
modifications: DOTA conjugated to primary amines (1.8 DOTA molecules per FN3 protein), chelating 64Cu
notes: also called 64Cu-FN3CD20; 64Cu-FN3
B6: binds [5].
